Reference: IntAct's records for PubMed 31515488

B1: Protein FAM9B (Homo sapiens), Q8IZU0 (parent)
chain: MAAWGKKHAGKDPVRDECEERNRFTETREEDVTDEHGEREPFAETDEHTGANTKKPEDTAEDLTAKRKRMKMDKTCSKTKNKSKHALRKKQLKRQKRDYIHSLKLLNVLEEYITDEQKEEEEEEGEEEELIRIFQEQQKKWQQYRSVRRERLKEMKLLRDQFVKALEDFEDLCDRVFSDEDSELDN
partner: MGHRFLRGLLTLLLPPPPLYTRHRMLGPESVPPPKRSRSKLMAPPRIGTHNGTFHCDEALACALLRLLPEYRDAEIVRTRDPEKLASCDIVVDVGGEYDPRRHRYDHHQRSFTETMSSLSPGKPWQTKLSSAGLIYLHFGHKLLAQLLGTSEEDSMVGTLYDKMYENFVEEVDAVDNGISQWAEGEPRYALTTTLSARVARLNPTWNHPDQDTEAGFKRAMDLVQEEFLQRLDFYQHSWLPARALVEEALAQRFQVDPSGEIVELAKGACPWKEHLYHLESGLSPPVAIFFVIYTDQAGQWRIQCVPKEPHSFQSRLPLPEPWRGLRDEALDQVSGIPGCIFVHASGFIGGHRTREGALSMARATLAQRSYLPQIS
B2: Fibronectin type III and SPRY domain-containing protein 2 (Homo sapiens), A1L4K1 (parent)
chain: MEEESGEELGLDRSTPKDFHFYHMDLYDSEDRLHLFPEENTRMRKVVQAEMANESRGAGDGKAQRDLQEEVDELVHLYGLEDDHELGDEFVDENIPRTGVSEYPPYMMKRRDPAREQRDWRLSGEAAEAEDLGFGGWGSAGQCQDLREAYRYTHGRASEEYECYVIPEEEDEEEAADVFCVTCKTPIRAFQKVFDEHKEHEVIPLNEALESAKDEIHKNMYKLEKQIIEMENFANHLEEVFITVEENFGKQEQNFESHYNEILETLAQKYEEKIQALGEKKKEKLEALYGQLVSCGENLDTCKELMETIEEMCHEEKVDFIKDAVAMADRLGKFLKTKTDVEISAQPEFEDQTLDFSDVEQLMGSINTIPAPSAPVINPQVPNSATGSSVRVCWSLYSDDTVESYQLSYRPVQDSSPGTDQAEFTVTVKETYCSVTNLVPNTQYEFWVTAHNRAGPSPSSERAVYMTAPSPPIIKTKEIRSCEEAVLICWESGNLNPVDSYTVELTQAESPEASGVTESVVGIPTCESVVQLQPGRSYIIYVRALNMGGPSVRSEPATVHTIGSYFRLNKDTCHPWLTISEDGLTAVRSERRTPARELSPSDTHFTRCVAVMGNLIPVRGHHYWEVEVDEHLDYRVGVAFADVRKQEDLGANCLSWCMRHTFASSRHKYEFLHNRTTPDIRITVPPKKIGILLDYEHSKLSFFNVDLSQHLYTFSCQLHEFVHPCFSLEKPGCLKVHNGISMPKHVTFY
partner: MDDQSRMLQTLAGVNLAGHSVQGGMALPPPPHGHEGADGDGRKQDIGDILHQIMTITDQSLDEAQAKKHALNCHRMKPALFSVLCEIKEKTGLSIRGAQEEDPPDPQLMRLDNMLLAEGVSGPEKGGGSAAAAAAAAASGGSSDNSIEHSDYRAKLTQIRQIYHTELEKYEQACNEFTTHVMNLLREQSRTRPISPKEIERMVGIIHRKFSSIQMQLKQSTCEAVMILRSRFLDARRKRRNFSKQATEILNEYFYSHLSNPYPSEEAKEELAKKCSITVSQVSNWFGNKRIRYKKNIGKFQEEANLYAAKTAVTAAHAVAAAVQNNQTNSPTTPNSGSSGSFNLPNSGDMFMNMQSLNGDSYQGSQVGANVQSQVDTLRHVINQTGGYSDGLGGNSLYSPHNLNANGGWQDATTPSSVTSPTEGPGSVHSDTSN
B3: Keratin-associated protein 26-1 (Homo sapiens), Q6PEX3 (parent)
chain: MSCPNYCSGNSNSGSLRTSRHIPLTSIDLCPTSVSCGDVLYLPTSSQDHTWVTDNCQETCGEPTSCQPVHCETGNLETSCGSSTAYYVPRPCQGSSFLPASFFSSSCLPVSCRPQRYVSSGCRPLRPLLNSYQPIGDCVPNAYRPQFCLSKSCQPQNLLTSGCQPSSCLAYRPQSLHVVSSSLRPLGPLFSGCQPLTHVFSTCRPSCSGL
partner: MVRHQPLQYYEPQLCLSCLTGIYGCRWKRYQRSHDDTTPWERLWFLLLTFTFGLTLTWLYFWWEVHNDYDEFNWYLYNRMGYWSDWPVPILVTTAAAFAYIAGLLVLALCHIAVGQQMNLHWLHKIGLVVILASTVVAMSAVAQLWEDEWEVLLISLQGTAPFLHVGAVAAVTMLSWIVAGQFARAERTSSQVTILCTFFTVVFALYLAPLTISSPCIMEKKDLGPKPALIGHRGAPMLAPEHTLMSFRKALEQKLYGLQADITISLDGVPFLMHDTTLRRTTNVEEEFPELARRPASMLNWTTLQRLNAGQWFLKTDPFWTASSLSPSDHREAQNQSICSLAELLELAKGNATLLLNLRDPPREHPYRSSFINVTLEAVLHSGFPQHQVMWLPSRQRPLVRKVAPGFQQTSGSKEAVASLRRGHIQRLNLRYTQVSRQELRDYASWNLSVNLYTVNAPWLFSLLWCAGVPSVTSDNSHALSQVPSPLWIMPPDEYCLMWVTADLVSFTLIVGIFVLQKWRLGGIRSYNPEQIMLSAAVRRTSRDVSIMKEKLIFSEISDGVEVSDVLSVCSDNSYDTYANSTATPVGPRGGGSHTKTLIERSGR
B4: Uridine diphosphate glucose pyrophosphatase NUDT22 (Homo sapiens), Q9BRQ3 (parent)
chain: MDPEVTLLLQCPGGGLPQEQIQAELSPAHDRRPLPGGDEAITAIWETRLKAQPWLFDAPKFRLHSATLAPIGSRGPQLLLRLGLTSYRDFLGTNWSSSAAWLRQQGATDWGDTQAYLADPLGVGAALATADDFLVFLRRSRQVAEAPGLVDVPGGHPEPQALCPGGSPQHQDLAGQLVVHELFSSVLQEICDEVNLPLLTLSQPLLLGIARNETSAGRASAEFYVQCSLTSEQVRKHYLSGGPEAHESTGIFFVETQNVQRLLETEMWAELCPSAKGAIILYNRVQGSPTGAALGSPALLPPL
partner: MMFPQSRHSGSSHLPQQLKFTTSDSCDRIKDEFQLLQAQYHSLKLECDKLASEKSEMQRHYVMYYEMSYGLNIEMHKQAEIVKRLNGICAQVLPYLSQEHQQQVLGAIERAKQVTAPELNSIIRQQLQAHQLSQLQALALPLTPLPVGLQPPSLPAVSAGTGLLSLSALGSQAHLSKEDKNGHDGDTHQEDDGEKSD
B5: DCC-interacting protein 13-beta (Homo sapiens), Q8NEU8 (parent)
chain: MPAVDKLLLEEALQDSPQTRSLLSVFEEDAGTLTDYTNQLLQAMQRVYGAQNEMCLATQQLSKQLLAYEKQNFALGKGDEEVISTLHYFSKVVDELNLLHTELAKQLADTMVLPIIQFREKDLTEVSTLKDLFGLASNEHDLSMAKYSRLPKKKENEKVKTEVGKEVAAARRKQHLSSLQYYCALNALQYRKQMAMMEPMIGFAHGQINFFKKGAEMFSKRMDSFLSSVADMVQSIQVELEAEAEKMRVSQQELLSVDESVYTPDSDVAAPQINRNLIQKAGYLNLRNKTGLVTTTWERLYFFTQGGNLMCQPRGAVAGGLIQDLDNCSVMAVDCEDRRYCFQITTPNGKSGIILQAESRKENEEWICAINNISRQIYLTDNPEAVAIKLNQTALQAVTPITSFGKKQESSCPSQNLKNSEMENENDKIVPKATASLPEAEELIAPGTPIQFDIVLPATEFLDQNRGSRRTNPFGETEDESFPEAEDSLLQQMFIVRFLGSMAVKTDSTTEVIYEAMRQVLAARAIHNIFRMTESHLMVTSQSLRLIDPQTQVSRANFELTSVTQFAAHQENKRLVGFVIRVPESTGEESLSTYIFESNSEGEKICYAINLGKEIIEVQKDPEALAQLMLSIPLTNDGKYVLLNDQPDDDDGNPNEHRGAESEA
B6: Actin-associated protein FAM107A (Homo sapiens), O95990 (parent)
chain: MYSEIQRERADIGGLMARPEYREWNPELIKPKKLLNPVKASRSHQELHRELLMNHRRGLGVDSKPELQRVLEHRRRNQLIKKKKEELEAKRLQCPFEQELLRRQQRLNQLEKPPEKEEDHAPEFIKVRENLRRIATLTSEEREL

Variants of: B1
Settings: with myg1_human MYG1, Q9HB07

Variant	effect of a mutation on the interaction
R23H	with no effect

Variants of: B2
Settings: with pbx3_human PBX3, P40426

Variant	effect of a mutation on the interaction
E720K	with no effect
K333T	with no effect

Variants of: B3
Settings: with gdpd5_human GDPD5, Q8WTR4

Variant	effect of a mutation on the interaction
S26Y	with no effect

Variants of: B4
Settings: with tle5_human TLE5, Q08117

Variant	effect of a mutation on the interaction
G36C	with no effect

Variants of: B5
Settings: with cradd_human CRADD

Variant	effect of a mutation on the interaction
H205R	with no effect

Variants of: B5
Settings: with suv92_human SUV39H2, Q9H5I1
Sequence of suv92_human SUV39H2, Q9H5I1 (Q9H5I1 whole entry): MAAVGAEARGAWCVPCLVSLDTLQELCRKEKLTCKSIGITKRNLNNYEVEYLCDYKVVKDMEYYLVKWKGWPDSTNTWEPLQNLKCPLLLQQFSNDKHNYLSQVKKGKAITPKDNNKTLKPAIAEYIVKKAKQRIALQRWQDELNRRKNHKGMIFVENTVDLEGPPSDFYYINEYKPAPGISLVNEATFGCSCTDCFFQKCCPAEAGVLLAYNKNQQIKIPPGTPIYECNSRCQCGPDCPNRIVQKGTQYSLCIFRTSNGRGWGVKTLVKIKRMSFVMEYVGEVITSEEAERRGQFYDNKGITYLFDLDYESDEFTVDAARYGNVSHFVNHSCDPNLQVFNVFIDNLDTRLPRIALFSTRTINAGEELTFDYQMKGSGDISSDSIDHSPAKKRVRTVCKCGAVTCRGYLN

Variant	effect of a mutation on the interaction
H205R	with no effect

Variants of: B5
Settings: with rab5c_human RAB5C

Variant	effect of a mutation on the interaction
K70R	with no effect

Variants of: B6
Settings: with cc136_human CCDC136, Q96JN2
Sequence of cc136_human CCDC136, Q96JN2 (Q96JN2 whole entry): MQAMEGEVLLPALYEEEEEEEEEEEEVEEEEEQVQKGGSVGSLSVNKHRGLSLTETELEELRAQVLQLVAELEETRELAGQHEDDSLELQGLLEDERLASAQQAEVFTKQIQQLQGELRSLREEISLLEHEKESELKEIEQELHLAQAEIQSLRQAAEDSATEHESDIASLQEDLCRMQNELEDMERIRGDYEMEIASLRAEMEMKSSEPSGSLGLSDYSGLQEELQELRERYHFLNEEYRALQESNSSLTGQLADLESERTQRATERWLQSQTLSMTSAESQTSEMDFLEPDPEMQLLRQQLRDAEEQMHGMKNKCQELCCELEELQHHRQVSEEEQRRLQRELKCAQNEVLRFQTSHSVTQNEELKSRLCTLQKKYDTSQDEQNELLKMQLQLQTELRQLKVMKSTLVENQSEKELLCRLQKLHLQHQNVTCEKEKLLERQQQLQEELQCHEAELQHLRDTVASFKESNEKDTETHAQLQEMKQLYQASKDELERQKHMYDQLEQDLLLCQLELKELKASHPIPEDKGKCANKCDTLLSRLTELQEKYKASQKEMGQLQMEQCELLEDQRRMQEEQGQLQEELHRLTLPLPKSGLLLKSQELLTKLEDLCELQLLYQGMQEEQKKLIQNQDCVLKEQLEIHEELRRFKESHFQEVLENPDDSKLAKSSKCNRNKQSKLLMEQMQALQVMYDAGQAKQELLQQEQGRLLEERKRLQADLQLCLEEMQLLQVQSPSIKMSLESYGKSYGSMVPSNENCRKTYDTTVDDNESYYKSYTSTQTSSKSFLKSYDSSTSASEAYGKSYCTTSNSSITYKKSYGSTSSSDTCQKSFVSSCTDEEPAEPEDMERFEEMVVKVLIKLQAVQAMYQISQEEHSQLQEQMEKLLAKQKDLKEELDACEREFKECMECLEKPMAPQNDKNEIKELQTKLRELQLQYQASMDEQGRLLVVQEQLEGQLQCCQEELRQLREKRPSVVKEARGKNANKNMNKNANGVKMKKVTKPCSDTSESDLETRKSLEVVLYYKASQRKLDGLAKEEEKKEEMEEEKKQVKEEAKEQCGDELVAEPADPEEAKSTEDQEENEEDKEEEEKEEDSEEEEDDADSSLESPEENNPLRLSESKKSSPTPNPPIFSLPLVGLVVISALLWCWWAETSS

Variant	effect of a mutation on the interaction
S63R	with no effect
E141Q	disrupting interaction strength

Variants of: B6
Settings: with traf2_human TRAF2, Q12933

Variant	effect of a mutation on the interaction
S63R	with no effect
E141Q	disrupting interaction strength
